In the supplement of paper PMC11502859 one finds median enrichment data, which are given here for 108 substances.

This data set relates to HEK293T. The data set can be described thus: median enrichment of reporter reads in eGFP-reduced (low/intermediate) vs eGFP-high sorted cells (eGFP-extension fusion abundance) (ratio); higher = stronger loss of eGFP-fusion protein abundance (more destabilising extension).
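Note: lentiviral eGFP-IRES-mCherry reporter pool sorted by FACS 96 h post-transduction, gated on mCherry-high cells, Illumina read counts normalized per million, median across four biological replicates.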

For “KGPEPGWGISAGQRRRLSQLFPDIQGHCSLLPSRTSLLPPTMAGGEQVSQKHPVPRMVLCACPSLLGLPFPLLREDVSLLTCT [KIRREL1]”, the median enrichment stood at 7.38.

Turning to “LATATALPVRQAPKGGGGMAQEEGCEEEEGEMAVASGSALQL [FAM228A]”, the median enrichment came to 0.27.

With SMLIP [ZMYND15], the median enrichment was 0.546.

For KKKKKKK [Lys07], the median enrichment came out at 0.751.

Regarding RAPAVIIQHDAA [PLXNA1], the median enrichment was determined as 5.99.

As to “SGGLPRRAKMAEMILKITEEREDQPEFPLDICVFLFFYFVLFFLLLLLP [SOX9]”, the median enrichment came out at 4.3.

Consider LKDRFFKLT [RBBP6], for which the median enrichment amounted to 3.7.

On to “SDGSAGTHCPPWLPLGGNPNRAPGGNPAPNPPQQGCTVSPLED [ATP13A1]”, for which the median enrichment is 0.555.

Turning to “APSCLSRCDRARPKPGCTLLDWASLHCLGKSAEGPKLLRGLRLVPTPKLVCSLPLPARVSGPRSIENTTTMARWKGLLVPASS [MLST8]”, the median enrichment was determined as 5.58.

For “CCSSVKEQQTWHWNRVENPGFCTWRGKMPSCFLINPNFIYSSGTLWG [OPALIN]”, the median enrichment amounted to 5.49.

For SPSASSRKNKKSRTWQVFSICCKYVY [FBXL13], the median enrichment amounted to 8.34.

For the substance “SPSDYIFNTTPPTPSWVRVSPVCPRPIKSTCHC [GPS2]”, the median enrichment turned out to be 5.9.

Regarding “GKSPVSQHRGAALHTCGETFPAGPRESDSKNNRCCFSRVM [HABP4]”, the median enrichment is 8.99.

In the case of “LHSCTPISRAASLPSRGLQQCAWLAAAPPRAPWPRRCQPT [THSD4]”, the median enrichment was 7.14.

As for “YPWPPGLASSFWVSQAPLALTPLARSPSFRSS [PPFIA4]”, the median enrichment turned out to be 16.

For “SAPPGTPSTPSIFSTKALVVSTLLPNGHTPKWPVGRESWSTCSGMVWWKRG [CLIC1]”, the median enrichment came out at 11.

With WSPTRPERPEMVLTMLPANRSRKPACE [ANXA2], the median enrichment turned out to be 1.38.

For GIIIISTCPQFLSQSPSILTCTHSDAD [TCHHL1], the median enrichment is 3.49.

Regarding “LPCSSTVTTRQALLSAEGVIPGPPVCVIVTMPCRDILEATHGWRNPEPPPQPTWLFVDSRRQGCAWLLTCC [PFKFB4]”, the median enrichment amounted to 11.1.

Turning to NNNNNN [Asn06], the median enrichment was 0.37.

Take YISTLFLKLTFQCH [GPNMB]: the median enrichment came out at 7.14.

For the substance “WLTAALAHSARGQDGGYLRPVLSCLFVFLIRDHVGLLRTRKAGKFPAGPSA [MKS1]”, the median enrichment was 10.7.

Turning to LLLL [Leu04], the median enrichment is 9.42.

For WNMKAEMQQTTSA [MNDA], the median enrichment is 0.66.

For the substance YPVGGWRVCHSNLIESRKTEGNAAAN [OR52E8], the median enrichment stood at 4.

With WMQLVCHSI [SERPINB4], the median enrichment was determined as 10.7.

Regarding YGFKTFLLHSTNLTSF [SNED1], the median enrichment is 33.4.

Take “RAGVCWHRQPPLWALGGPLKGSPTRGPDESFLSGVGSQRGSPPAAWGRAWPGRVIQRVCQPLTGSPSVAATRSTELLQPRGQL [FAM53B]”: the median enrichment was 6.39.

Turning to LPRWFQPRHTLVPT [DNAAF5], the median enrichment was 4.04.

As for QCDSQCNNIKISFYIII [ASNSD1], the median enrichment was found to be 4.36.

Turning to QTAKKEKLN [PTMA], the median enrichment stood at 0.399.

On to “YWWLVVMNSYSVASSLPASHLPSTSQLLPSLTEANIFI [NTRK3]”, for which the median enrichment stood at 23.2.

For the substance WALGLKSQLFLSCSV [DIRAS3], the median enrichment came to 35.7.

For QKILPSLVVGTDRIHLTQTSSFTDFNYLFLKT [WSB1], the median enrichment was 2.9.

CALYLGSGQELHLGTNSC [ABCF2]: the median enrichment was determined as 13.2.

Take QLICYVNLSFAFLFD [DGKB]: the median enrichment turned out to be 13.9.

As to YTQKTNSIQSQ [ENDOD1], the median enrichment was found to be 1.93.

In the case of LALYLGSGQELHLGTNSC [ABCF2], the median enrichment worked out at 6.15.

With RASSFS [KLHL10], the median enrichment is 0.821.

With “LPMTLSWGPPARPGTFLPNPQTHDSLPHRLPQRPPTHFILSGHPSDLDPPVRAFKAPNSGTRSAPLPRPRAGNFSLPDPALLF [SCRT2]”, the median enrichment was found to be 6.07.

YIIHCIFYFYHILHIQQNLYVVIGII [ELMOD2]: the median enrichment was determined as 7.8.

With “WGPVHAGGLRDPHNPQTQSPRALPKPLAWLQSRLRAGATYPCAGTCSLCSVLITPP [RUSC2]”, the median enrichment came to 7.23.

Consider EEEEE [Glu05], for which the median enrichment was found to be 1.41.

Take LSPQMGAEIFQSLEFFQ [ZNF112]: the median enrichment was 0.686.

Consider GVFDS [DDX50], for which the median enrichment is 0.357.

For RGPSETVYALTST [KDELR3], the median enrichment amounted to 1.55.

For the substance VVVV [Val04], the median enrichment is 1.54.

On to “QGQVICSLSAFTPFNSLTPCQTYLSGTSSPDTFQRREKK [CREBZF]”, for which the median enrichment amounted to 4.04.

Consider “EDTPSPDSTGNRSSPDSPPRRASPRPCTGSEASVTLPLCSPVP [KDM2A]”, for which the median enrichment came to 0.106.

As for YMQKWIK [KCNMB2], the median enrichment was 11.9.

For YNEK [PJVK], the median enrichment worked out at 0.295.

With SGTRKEID [PCDHB16], the median enrichment came out at 0.57.

YSQERWKQVTSTIA [OR5K1]: the median enrichment was found to be 7.21.

Regarding CVTVLDFSKTSFNTE [GABRB3], the median enrichment amounted to 4.69.

For RRRRRR [Arg06], the median enrichment was 0.898.

As to DDDDDDDDDD [Asp10], the median enrichment came out at 0.433.

LDRKEYERAIHHQTAHTGEK [ZNF573]: the median enrichment is 0.396.

For SECTLQSWWFLRVGLDRVAAC [BPHL], the median enrichment stood at 7.67.

Take YMKLDI [ARF4]: the median enrichment was 1.7.

With “GRCSDASAGAGTPNPWLQNRDPHPDRGSSAFEGFQAGLCGTEAQRGPGTWQRWGREEIQLPSLLPLLLQVPSNQELYILLVPQ [CCDC86]”, the median enrichment was 5.26.

Turning to YISHQKLRQEKQK [RASSF8], the median enrichment is 3.3.

For SPGEKL [ZNF322], the median enrichment turned out to be 0.169.

Regarding WFFCFNKQQ [TMEM31], the median enrichment was found to be 6.9.

In the case of CSFQRNMVSGQKDC [ZNF831], the median enrichment is 0.731.

For the substance YYY [Tyr03], the median enrichment is 1.14.

Turning to LLTLS [BBS5], the median enrichment was determined as 10.2.

Consider KFRSPHFSAPRMVLFIFHHL [SLC43A3], for which the median enrichment came out at 9.56.

As to YPAHLASLFSF [ECD], the median enrichment amounted to 2.85.

LWDNHKVWKLGLK [BCO2]: the median enrichment turned out to be 4.23.

Regarding LNILKCKASTV [TRAPPC6B], the median enrichment is 1.63.

On to SNVIPLKRKMNNTLN [HRG], for which the median enrichment stood at 0.435.

Turning to YELWGAHTPQSS [IL17A], the median enrichment came to 1.09.

For the substance YQSVL [RNASE9], the median enrichment was determined as 1.04.

In the case of YVRTVG [UFD1], the median enrichment stood at 3.02.

As to SREDVKCLSVNCSAVSKQSSNLQY [RIT1], the median enrichment came to 0.34.

For the substance LSLTALPGANSGT [ANKZF1], the median enrichment came out at 1.24.

LPF [SDHD]: the median enrichment came out at 0.443.

Turning to EYPRFKKRT [PPP2R1B], the median enrichment is 1.16.

Consider “GGEERRADLGRALRTWPRARDSPGSSSPWQAQQHVPQIWKGLPLCQCLGGCHGCPHPLLSVCGVEEPTPASCQDHLGGHTPAK [GPRC5C]”, for which the median enrichment was 0.687.

For QMTKP [RBFOX1], the median enrichment is 0.233.

On to YRKVSVSPNPHSNEF [GPR22], for which the median enrichment is 41.8.

QKQPQGSINNICQLNLLSSNAKKGEWRVQD [PAPOLA]: the median enrichment amounted to 2.06.

Turning to YHH [FAM229B], the median enrichment came out at 0.611.

For “CASALEETTGSPICLEFLLLLLLVCFQISLCFLLCSRKVLQNHREKVHCYKGIPTHWRL [PAQR9]”, the median enrichment worked out at 25.9.

EVGQPLMSWFLQLSFPLGCIEGFS [RAG1]: the median enrichment amounted to 6.39.

Consider WARVVARPCTTAIANQSPKAKFTCCSHPQ [MAGEB2], for which the median enrichment was determined as 8.12.

For the substance QQQ [Gln03], the median enrichment was 0.325.

On to LRRGGKREKMERGAGNGGERTSKETEMKT [ZSWIM9], for which the median enrichment amounted to 1.53.

Turning to QPWQ [ADGRL3], the median enrichment is 0.354.

For the substance SKRGHMESGGHLDD [PTGR1], the median enrichment worked out at 0.345.

For “SNIRFVIRNTLCLLWSCARWPQMDYRRLQRTRQMEH [BCL2L14]”, the median enrichment came out at 16.6.

Turning to “FGHSRTGERQLYFSLGQLQRVGQALMGSDCQSDAVGPRQRKAGRRGARTFSPHCPFPFSGEHRRLLTPTSCEAVAYGVQRSWS [C16orf58]”, the median enrichment stood at 4.42.

As to SGFLKLSSKLLRLFK [FABP12], the median enrichment is 7.41.

With “QPDKRNKLFFLMDCSKRSLKIPWLSTYKTYYLNKEEYYVNIHIKNFGGFEKNELYIYKSTLKTNFNCLKQLF [NLGN1]”, the median enrichment turned out to be 24.

On to SKILVLLNYLI [TIPARP], for which the median enrichment came to 5.53.

As to QGSYGIPPRSARA [CDKN2A], the median enrichment was 5.31.

As to “GGLLALTLQPTLAVWPSPGSFPAPLPLFPVLLNSPSWRVQALGMGGTRPHSFHRALRPDTADQPHSAQEAASGVGAQRGTAAS [BAP1]”, the median enrichment was 5.39.

As to LKINC [FGG], the median enrichment is 0.827.

“LNAFLASSAGGLSLGRGDSTHHWNFADRKRFLFSVL [KMT2C]”: the median enrichment amounted to 16.9.

In the case of SPARRPSQRVTRPRGRTDSSDSPQ [EPS8L1], the median enrichment turned out to be 0.338.

QGHACAPMGFLFSFFFFLVGGVGGLD [PRKACA]: the median enrichment was 5.49.

With DDDDDDDD [Asp08], the median enrichment worked out at 0.299.

Turning to LADP [AKAP4], the median enrichment stood at 0.662.

For the substance LFSTEIQNISLTALRCVC [NIPSNAP3B], the median enrichment amounted to 6.41.

As to WLQPAKSILLFHFFHDGAV [CTSK], the median enrichment stood at 8.37.

Turning to “RGDAVGLAEPRFSHQQGECWPDTSEDPGLVIICLGGTG [GMPPB]”, the median enrichment is 7.69.

On to “WVLSRAVEVPVIPAGAAATQSGRQGGEHLSATETNHSLFAQHASSSVLHSSPGSLSGSSTESFCSLKCWDA [CGNL1]”, for which the median enrichment is 8.11.

Consider “PTASSLQVQLKPLSSGGRHVERAGRPTAAENRAGTGSSCSAFPSFGDAGSAAPKHLPAPHSTVSEDSSLLPVKLPCAGMAWTC [CDC14B]”, for which the median enrichment came out at 2.89.
